How the values were obtained:
[1] = biological target: T1, anti-mCD19 IgG (clone 1D3); assay: ELISA, titration with anti-mCD19 (1D3) IgG, OD(450nm); value printed beside the circle curve
T1 construct: Anti-mouse CD19 IgG; also called 1D3 IgG; biotinylated 1D3 antibody

FMC63 scFv = biological target: T2, FMC63 scFv (biotinylated); assay: flow cytometry of yeast clones, titration with biotinylated FMC63 scFv and streptavidin-PE, MFI (geometric mean)
T2 construct: also called biotinylated FMC63 scFv; FMC63-scFv monomer
T2 sequence (scFv, as listed by the source): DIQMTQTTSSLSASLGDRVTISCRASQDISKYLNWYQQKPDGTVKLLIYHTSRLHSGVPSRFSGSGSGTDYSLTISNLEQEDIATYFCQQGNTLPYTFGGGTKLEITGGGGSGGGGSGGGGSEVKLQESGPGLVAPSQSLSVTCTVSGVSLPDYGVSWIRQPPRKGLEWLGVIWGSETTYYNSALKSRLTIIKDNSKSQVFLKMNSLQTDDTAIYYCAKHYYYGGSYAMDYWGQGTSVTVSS
Method: The binding affinity of the isolated yeast clones to FMC63 was determined.

FMC63 IgG [2] = biological target: T3, FMC63 IgG; assay: flow cytometry of yeast clones stained with 5 µM FMC63 IgG, alanine scan
T3 construct: biotinylated in the flow cytometry assays; also called FMC63 IgG antibody; biotinylated FMC63 IgG
T3 sequence (VH, as listed by the source, chain 1 of 2): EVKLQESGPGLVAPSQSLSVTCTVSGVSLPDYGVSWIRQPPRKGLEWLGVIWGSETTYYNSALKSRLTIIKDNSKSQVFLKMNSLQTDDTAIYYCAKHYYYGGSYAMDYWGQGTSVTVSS
T3 sequence (VL, as listed by the source, chain 2 of 2): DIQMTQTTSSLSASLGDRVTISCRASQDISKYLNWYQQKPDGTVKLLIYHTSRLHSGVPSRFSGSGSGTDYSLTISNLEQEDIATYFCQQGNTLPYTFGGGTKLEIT
Method: (§1) To determine the effect of amino acid position on binding to FMC63, an alanine mutagenesis experiment was performed were each amino acid was mutated to alanine and binding to FMC63 was assessed. Specifically, a representative mimotope, […] To assess the tolerance of additional alanine residues, one alanine or two alanine residues were inserted between the two cysteine residues (SEQ ID NOs: 52 and 53) to determine the impact the loop structure had on mimotope binding to FMC63. To generate mutations, two complementary oligos with the codon replaced at the desired site were denatured at 95° C. and annealed by slow cooling to 25° C. (decreasing by 0.5° C./second). The annealed oligos were treated with T4 PNK (T4 Polynucleotide Kinase) to add a terminal phosphate, and then ligated into digested pCT-CON2 vector. Positive clones having the correct oligo inserted were tested and transformed into competent EBY100 yeast cells. Following generation of mutated clones, flow cytometry was performed by staining the yeast with 5 μM FMC63 IgG antibody to measure binding of the mimotope (FIG. 11).

FMC63 IgG [3] = biological target: T3, FMC63 IgG; assay: flow cytometry of yeast clones, titration with 0.01-1000 nM biotinylated FMC63 IgG, MFI (geometric mean)
Source text: (§2) In order to validate specific sequences, clones were isolated and measured for their affinity to FMC63. Specifically, a subset of mimotope clones were selected from the fixed library sequence described in Example 5.

FMC63 IgG [4] = biological target: T3, FMC63 IgG; assay: flow cytometry (MFI), yeast clone titrated with 0.01-1000 nM biotinylated FMC63 IgG; yeast-displayed clone, FACS titration 0.01-1000 nM biotinylated FMC63 IgG
Source text: as §2

[5] = biological target: T1, anti-mCD19 IgG (clone 1D3); assay: ELISA, titration with anti-mCD19 (1D3) IgG, OD(450nm); value printed beside the triangle curve
FMC63 IgG [6] = biological target: T3, FMC63 IgG; assay: ELISA with FMC63 IgG; ELISA, not FACS titration
Method: Next, the affinity of the […] (SEQ ID NO: 5) mimotope to FMC63 was determined.

FMC63 IgG [7] = biological target: T3, FMC63 IgG; assay: flow cytometry of yeast clones stained with 5 µM FMC63 IgG, tolerance of extra alanine residues
Method: as §1

[8] = biological target: T1, anti-mCD19 IgG (clone 1D3); assay: ELISA, titration with anti-mCD19 (1D3) IgG, OD(450nm); value printed beside the square curve
FMC63 IgG [9] = biological target: T3, FMC63 IgG; assay: flow cytometry (MFI), yeast clone titrated with 0.01-1000 nM biotinylated FMC63 IgG
Source text: as §2

T1 sequence (VH, as listed by the source, chain 1 of 2): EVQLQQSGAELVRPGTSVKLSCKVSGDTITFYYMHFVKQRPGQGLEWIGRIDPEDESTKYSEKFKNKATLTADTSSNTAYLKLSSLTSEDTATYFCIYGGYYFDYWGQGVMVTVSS
T1 sequence (VL, as listed by the source, chain 2 of 2): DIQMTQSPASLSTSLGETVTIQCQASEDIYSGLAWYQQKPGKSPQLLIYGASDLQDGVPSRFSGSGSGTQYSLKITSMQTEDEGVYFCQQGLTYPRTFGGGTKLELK

B1: 1D3 mimotope H1 (SKLKGKSGPE) as used in the ELISA of FIG. 13 (peptide)
peptide: SKLKGKSGPE
notes: also called 10 amino acid mimotope
[1]
  Kd: 190 nM

B2: K-C2 mimotope, yeast-displayed (peptide)
peptide: RICPWNCKELPSPPRIFGNR
FMC63 scFv
  EC50 (read off the curve): ~10 nM

B3: ALCPWSCREL (peptide)
displayed peptide: ALCPWSCREL
notes: also called alanine at R1 (position 1)
FMC63 IgG [2]
  binding result: no binding (tested: 5 µM)

B4: FMC63 Mimotope(F8), yeast-displayed (peptide)
peptide: RLCPWDCREL
FMC63 IgG [3]
  EC50 (read off the curve): ~10 nM

B5: RLCAWSCREL (peptide)
displayed peptide: RLCAWSCREL
notes: also called alanine at P4 (position 4)
FMC63 IgG [2]
  binding result: no binding (tested: 5 µM)

B6: FMC63 Mimotope(H8), yeast-displayed (peptide)
peptide: RICPWACVEL
FMC63 IgG [3]
  EC50 (read off the curve): ~8 nM

B7: RLCPASCREL (peptide)
displayed peptide: RLCPASCREL
notes: also called alanine at W5 (position 5)
FMC63 IgG [2]
  binding result: no binding (tested: 5 µM)

B8: RLAPWSCREL (peptide)
displayed peptide: RLAPWSCREL
notes: also called alanine at C3 (position 3)
FMC63 IgG [2]
  binding result: no binding (tested: 5 µM)

B9: RLCPWSAREL (peptide)
displayed peptide: RLCPWSAREL
notes: also called alanine at C7 (position 7)
FMC63 IgG [2]
  binding result: no binding (tested: 5 µM)

B10: FMC63 Mimotope (A1), yeast-displayed (peptide)
peptide: RHCPWNCSLL
FMC63 IgG [4]
  Kd: > 1000 nM

B11: 1D3 Mimotope Multimer H1 + E2 (SKLKGKSGPEIRVLMSRVFA) (peptide)
peptide: SKLKGKSGPEIRVLMSRVFA
notes: Chemically synthesized 20 amino acid fusion of two mimotopes; also called fusion mimotope
[5]
  Kd: 6.7 nM

B12: FMC63 Mimotope(F12), yeast-displayed (peptide)
peptide: RICPWNCKEL
notes: also called F12 mimotope
FMC63 scFv
  EC50 (read off the curve): ~40 nM

B13: high-affinity mimotope RHCPWNCSLL (SEQ ID NO: 5) as used in the ELISA of FIG. 7 (peptide)
peptide: RHCPWNCSLL
FMC63 IgG [6]
  Kd: ~1400 nM

B14: FMC63 Mimotope Mutant RLCPWSAACREL (SEQ ID NO: 52), yeast-displayed (peptide)
peptide: RLCPWSAACREL
notes: also called two alanine residues inserted between the two cysteine residues
FMC63 IgG [7]
  binding result: no binding (tested: 5 µM)

B15: FMC63 Mimotope Mutant RLCPWSACREL (SEQ ID NO: 53), yeast-displayed (peptide)
peptide: RLCPWSACREL
notes: also called one alanine inserted between the two cysteine residues
FMC63 IgG [7]
  binding result: no binding (tested: 5 µM)

B16: 1D3 Mimotope Multimer H1 + C11 (SKLKGKSGPEFHWFINVPPF) (peptide)
peptide: SKLKGKSGPEFHWFINVPPF
notes: as for B11
[8]
  Kd: 102 nM

B17: FMC63 Mimotope (D12), yeast-displayed (peptide)
peptide: RICPWSCRAP
FMC63 IgG [9]
  Kd: > 1000 nM

Reference: patent US20210340524A1 (MIT, published 2021)
